Experimental data reported in patent publication US6399078.

How the values were obtained:
[1] = biological target: cell surface receptors on glycanase treated PBMC; assay: saturation binding of 125I-RANTES-heparin complexes to glycanase treated activated human PBMC, gamma counting, nonlinear curve fitting after subtracting non-specific binding
[2] = biological target: cell surface receptors on glycanase treated PBMC; assay: saturation binding of 125I-RANTES-heparin complexes to glycanase treated activated human PBMC, nonlinear curve fitting
[3] = biological target: cell surface receptors on glycanase treated PBMC; assay: saturation binding of 125I-RANTES-heparin complexes to glycanase treated activated human PBMC
CCR5 (human) [4] = biological target: CCR5 (human) (UniProt P51681); assay: flow cytometry of the activated human PBMC with mAb 2D7
CCR5 (human) [5] = biological target: CCR5 (human) (UniProt P51681); assay: glycanase treated PBMC preincubated with mAb 2D7, then 125I-RANTES-heparin complexes as labelled ligand, gamma counting; reference normal mouse IgG

Chain of UniProt P51681 (P51681 whole entry): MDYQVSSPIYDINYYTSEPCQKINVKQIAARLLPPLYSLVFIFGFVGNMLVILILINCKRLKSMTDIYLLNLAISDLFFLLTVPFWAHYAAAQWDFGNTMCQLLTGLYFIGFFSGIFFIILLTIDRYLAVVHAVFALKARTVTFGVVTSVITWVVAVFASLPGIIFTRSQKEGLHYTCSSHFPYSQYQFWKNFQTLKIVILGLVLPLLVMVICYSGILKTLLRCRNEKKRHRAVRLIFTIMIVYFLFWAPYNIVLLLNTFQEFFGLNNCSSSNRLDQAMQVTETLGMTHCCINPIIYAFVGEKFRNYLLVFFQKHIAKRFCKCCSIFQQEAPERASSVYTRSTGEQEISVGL

| Kd [1] | Bmax (binding sites per cell) [2] | saturating concentration [3] | percent of cells expressing CCR5 (stained by 2D7) (CCR5 (human) [4]) | percent reduction of 125I-RANTES binding (CCR5 (human) [5]) | Substance |
| --- | --- | --- | --- | --- | --- |
| 1.5 nM | 900 | > 1 nM | – | – | 125I-labeled RANTES-heparin complexes (from UniProt P13501 24-91) (ligand) |
| – | – | – | 100% | 40 percent | anti-CCR5 monoclonal antibody 2D7 |
